Data published in patent US20220251184A1 (Regeneron, published 2022).
Where a chain is given by its changes, count along the chain named.

T1: human BMP6 (R&D Systems, Cat #507-BP) (human, UniProt P22004 375-513, limits assumed)
T1 construct: Bought protein (R&D Systems 507-BP or 507-BP/CF); also called hBMP6; hBMP-6
T1 sequence: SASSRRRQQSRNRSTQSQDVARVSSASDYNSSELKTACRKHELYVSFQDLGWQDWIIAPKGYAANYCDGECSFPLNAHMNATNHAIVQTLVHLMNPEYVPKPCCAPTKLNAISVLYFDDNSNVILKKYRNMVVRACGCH

T2: Human BMP3b (human, UniProt P55107 369-478, limits assumed)
T2 sequence (looked up): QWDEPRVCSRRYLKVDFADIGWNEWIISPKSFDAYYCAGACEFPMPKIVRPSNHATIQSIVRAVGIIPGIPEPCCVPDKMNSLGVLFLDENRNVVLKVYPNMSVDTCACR

T3: Human BMP5 (human, UniProt P22003 317-454, limits assumed)
T3 sequence (looked up): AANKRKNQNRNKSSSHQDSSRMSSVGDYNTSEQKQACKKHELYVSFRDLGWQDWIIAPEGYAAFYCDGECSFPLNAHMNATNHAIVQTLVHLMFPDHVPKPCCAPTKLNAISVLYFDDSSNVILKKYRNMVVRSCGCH

B1: H4H17871P (antibody, V domains shown)
VH: EVQLVESGGGLVQPGGSLRLSCAASGFTFNNYAMSWVRQAPGKGLEWVSAISGSGDSTYYADSVKGRFTISRDNSKNTLYLQMNSLRAEDTAVYYCAKRSRSSPFDPWGQGTLVTVSS
VL: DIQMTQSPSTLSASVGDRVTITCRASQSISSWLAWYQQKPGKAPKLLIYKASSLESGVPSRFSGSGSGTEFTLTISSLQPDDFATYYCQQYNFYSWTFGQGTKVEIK
notes: Fully human antibody; also called anti-BMP6 monoclonal antibody; BMP6 antibody of the invention
B2: H4H17855P (antibody, V domains shown)
VH: B1 VH with N30S, N31S, D56G, S57R, A61T, I70M, S100P, R101Y, S102N
VL: EIVLTQSPGTLSLSPGEGATLSCRASQSVSSSYLAWYQQKPGQAPRLLIYGASSRATGIPDRFSGSGSGTDFTLTISRLEPEDFVVYYCQHFGGTPFTFGGGTKVEIK
notes: as for B1

Legend:
[1] = molecular target: T1, human BMP6 (R&D Systems, Cat #507-BP); test: SPR (MASS-1), mAb captured on anti-human Fc, hBMP6 in solution, 25 C; 25 C
Experimental: Equilibrium dissociation constants (KD values) for human and mouse BMP6 binding to purified anti-BMP6 monoclonal antibodies of this invention were determined using a real-time surface plasmon resonance (SPR) biosensor instrument, MASS-1. All binding studies were performed in 10 mM HEPES, 150 mM NaCl, 3 mM EDTA, 1 μg/mL Heparin, and 0.05% v/v Surfactant Tween-20, pH 7.4 (HBS-EHT) running buffer at 25° C. and 37° C. The HCA sensor surface was first derivatized by amine coupling the monoclonal mouse anti-human Fc antibody (GE, #BR100839) and anti-BMP6 monoclonal antibodies were individually captured. Different concentrations of human BMP6 reagents (hBMP6; R&D Systems, Cat #507-BP; 60 nM-0.94 nM; 4-fold serial dilution) or mouse BMP6 (mBMP6; R&D Systems, Cat #6325-BM; 60 nM and 15 nM) prepared in HBS-EHT running buffer were injected over the captured anti-BMP6 monoclonal antibody for 4 minutes at a flow rate of 30 μL/minute, while the dissociation of BMP6 reagent bound to captured anti-BMP6 monoclonal antibody was monitored for 10 minutes in HBS-EHT running buffer. Kinetic association (kₐ) and dissociation (kd) rate constants were determined by fitting the real-time binding sensorgrams to a 1:1 binding model with mass transport limitation using Scrubber 2.0c software. […]

[2] = molecular target: T2, Human BMP3b; test: BLI (Octet HTX), mAb captured on Protein A sensor, 100 nM ligand, 25 C
[3] = molecular target: T3, Human BMP5; test: as above
[4] = molecular target: T1, human BMP6 (R&D Systems, Cat #507-BP); test: competition ELISA, antibody titrated against 2.5 nM biot-hBMP6, plate-coated hHJV-hFc as competitor; value below the lower limit of quantitation of 1.25E-09 M
Experimental: These antibody-protein complexes, after a one-hour incubation, were transferred to the microtiter plate coated with hHJV-hFc or hActR2a-hFc. After two hours of incubation at room temperature, the wells were washed, and plate-bound biot-BMP6 was detected with neutravidin conjugated with horseradish peroxidase (HRP) (Thermo Scientific, Cat #31030). The plates were then developed using TMB substrate solution (BD Biosciences, Cat #555214) according to manufacturer's recommendation and absorbance at 450 nm was measured on a Victor X5 plate reader.
Data analysis was performed using a sigmoidal dose-response model within Prism™ software (GraphPad). […] Percent blockade at indicated concentration of the antibody tested was calculated as an indicator of the ability of the antibodies to block the binding of 2.5 nM or 1.5 nM of biot-BMP6 to hHJV-hFc or hActR2a-hFc on the plate, respectively. In the calculation, binding signal of the sample of the constant biot-BMP6 without the presence of the antibody for each assay was referenced as 100% binding or 0% blocking; and the baseline signal of the sample of buffer only without the presence of biot-BMP6 was referenced as 0% binding or 100% blocking.
The isotype control antibody blocked <30% at concentrations up to 300 nM antibody, as expected.

| Binder | Kd [1] [nM] | binding response [2] [nm] | binding response [3] [nm] | IC50 [4] [nM] |
| --- | --- | --- | --- | --- |
| B1 | 0.195 | 0.19 | – | – |
| B2 | – | – | 0.01 | 0.522 |
